We go through two molecules from US8679782B2, “Production of triacylglycerides, fatty acids, and their derivatives” (Massachusetts Institute of Technology, priority 2009, dated 2014).

Series [1] deals with purified lipid bodies. Description: Lipid aggregation assay with purified lipid bodies. Type of series: biochemical, R. opacus PD630. The method, then:
Lipid bodies were purified from R. opacus PD630 as previously described (27) with minor modifications. Briefly, R. opacus was grown for 96 h in minimal media supplemented with 4% glucose and 0.15% ammonium sulphate. Cultures were harvested via centrifugation at 6000×g for 20 minutes. Cell pellets were resuspended in 25 ml of PBS and lysed by passing through a French pressure cell set at 18,000 psi 5 times. An equal volume of 80% glycerol was added to lysates followed by centrifugation at 6000×g for 3 h at 4° C. Following centrifugation, the upper layer (lipid body fraction) was removed to 40 ml of 40% glycerol (tube #1) and the pellet (cell debris) was resuspended in 40 ml of 40% glycerol (tube #2) followed by a second centrifugation at 6000×g for 3 h. The lipid body layer (upper layer) from tube #1 was removed to 20 ml PBS and the cell debris (pellet) from tube #2 was resuspended in 20 ml of PBS followed by centrifugation at 7500×g for 30 min. All fractions were then resuspended in 5 ml of PBS and used immediately. […] Wells were imaged using a Canon Powershot SD1200 IS digital camera (Canon, Lake Success, N.Y.). To obtain a more quantitative measure of aggregation, 2 μl of the supernatant was removed from each well and the optical density at 600 nm was determined using a Nano-Drop spectrophotometer (Thermo Scientific, Wilmington, Del.).

The next series relates to yeast. Description: Yeast agglutination assay. Particulars: FIG. 85. The series is classed as cell-based.
Series [2] can be described thus: Heparin-sepharose binding. The method, then:
Purified TadA was diluted to a final concentration of 500 μg/ml in dialysis buffer. 100 mg of Heparin-sepharose CL-6B (GE Healthcare, Piscataway, N.J.) was resuspended in 5 ml of Tris buffer (20 mM Tris (pH7.0), 100 mM NaCl) and allowed to rehydrate with gentle agitation for 1 h. Following rehydration, the resin was pelleted via centrifugation at 1000×g for 2 minutes and subsequently washed 3 times in the same buffer. The resin was resuspended in 1 ml of Tris buffer to which 500 μg of purified TadA was added. The Sepharose-TadA slurry was incubated at 4° C. for 1 h with gentle agitation. Following incubation, the resin was pelleted, an aliquot of the supernatant was removed (flow-through fraction), the Sepharose was washed 5 times with Tris buffer and an aliquot of the supernatant from the final wash was removed (wash fraction). The remaining heparin-sepharose was resuspended in 1 ml of Tris buffer from which an aliquot was removed (beads fraction). 5× SDS-PAGE loading buffer was added to each aliquot, which were then boiled for 5 min. Samples were resolved using 10% acrylamide Ready gel Tris-HCl SDS-PAGE gels (Bio-Rad, Hercules, Calif.) and stained using colloidal coomassie as previously described (18, 31).

Series [3] deals with purified lipid bodies. Description: Western blotting of lipid bodies from the aggregation assay. Type of series: binding, R. opacus PD630. The following applies: supernatant and washed lipid body fractions. Background: A western blot detects proteins with antibodies after separation by electrophoresis.
Series [4] is described as follows: NAD(P)H-dependent glyceraldehyde 3-phosphate dehydrogenase (ND-G3PDH) activity assay. Type of series: biochemical. The following applies: purified histidine-tagged protein vs empty vector fractions; G3P and NAD(P)+. The method, then:
NP-G3PDH activity was assayed as previously described with minor modifications (9). Briefly, reactions contained 1 mM NAD(P)+, 1 mM glyceraldehyde 3-phosphate and either […] of purified TadD or […] of crude bacterial lysate in a final volume of 1 ml. Reactions were incubated at 37° C. for one hour. Following incubation, the optical density of the reactions was measured at 340 nm. R. opacus cultures were grown in either lysogeny broth or MR medium supplemented with 4% glucose and 0.15% ammonium sulphate for 24 hours prior to mechanical disruption using a French pressure cell. Cellular debris was pelted by centrifugation at 20,000×g for 30 minutes.
Additionally, we fractionated supernatant from E. coli containing the parental plasmid which was used as an empty vector control. Fractions containing the histidine tagged TadD protein (and the corresponding fractions from the empty vector fractionation) were then used in ND-G3PDH activity assays.

B1: TadA: R. opacus PD630 heparin-binding hemagglutinin homolog, SEQ ID NO:11 (protein, listed as Rhodoccus opacus)
chain: MTDQKTIDSVKTSLYAAVGAGDVVVQAVADVVAQVRSRAESTQGDVEERVGGAKERIAGLQEEVTEGVENLRDRLAGLPSELPEELAELREKFTADELRKVAEAYLKVASDLYTSLAERGEDTVERIRKQPVVEEGIGRAETAFGDAVELTEEALGTVARQTRAVGEQAAKLAGRASGRISDTAEGLGEAIADAGDEAALKVLDLGDQAEEASKDAADRVAATAADVQAQADKAAQAKHAAPAKKAAPAKAAATPAPAPAKKVAAPAKKAAPAKKA
With B1, in the series on purified lipid bodies [1] (2 μl supernatant from each well), the “optical density at 600 nm of the supernatants” value is “decreases as protein concentration increases”. The “lipid body aggregation and flocculation (96 well dish)” value in the series with purified lipid bodies [1] (increasing protein concentrations, 12 h room temperature) was “capable of inducing lipid body aggregation and subsequent flocculation in a dose-dependent manner”. In addition, the “size of lipid body aggregates (Nile Red fluorescent microscopy)” value with purified lipid bodies [1] (samples from the aggregation assay) is “aggregated into very large clumps”. Besides, the yeast agglutination result in the series on yeast was “yeast agglutination mediated by TadA”. Moreover, in series [2] (control with pure heparin), the “binding to heparin-sepharose in the presence of pure heparin” value is “completely abrogated any binding”. Moreover, the “binding to heparin-sepharose (SDS-PAGE of flow through, wash, beads)” value in series [2] (purified hexa-histidine protein) is given as “the majority of the protein was found associated with the heparin-sepharose”. The “association with lipid bodies (anti-penta-histidine Western blot)” value in the series with purified lipid bodies [3] is on record as “detected in both the supernatant as well as the lipid body fractions”.

B2: TadD: R. opacus PD630 non-phosphorylating NAD(P)+-dependent glyceraldehyde 3-phosphate dehydrogenase homolog, SEQ ID NO:4 (protein, listed as Rhodoccus opacus)
chain: MSIAADSLSNITPPGLTIDGEITTTAAVIPVINPATESAFIEVPDAGVEQLDAAVSAARRAAKHWATHDLPFRQGIVLRLVDHVRANIDELARLVTLEQGKPLAKAAGEIESGLRGLERYASWDIPVEVIRDNDDELIEVHRAPVGVVGGITAWNYPLLLALWKIGPALITGNPIIVKPSPLTPVATLRLGELAQQILPPGVLQVLSGGDDLGRAMTAHTGIDKITFTGSERAGKSIMAGAGATLKRLTLELGGNDPGIVLDDVDVASIAADLYWGALSNCGQVCAGLKRLYVPQHLAPAIEEALAEVAKGVKVGNGLDDGVDMGPVQNAAQFTKVRGYVDDAANRGADVYFRGEVPEGPGYFHPVTLVRGVDDSVPLVREEQFGPVLPILTYTDIDDVIARANDSELALGASVWSSDEQRATEVAERVEAGTVWVNQHPMLSSDVPFGGVKQSGLGVEQSIHGVLEYTNYRVLRVKR
With B2, the “NAD(P)H formation (increase in optical density at 340 nm)” value in series [4] is on record as “significantly more NAD(P)H”.
